Results reported in patent publication US12099068B2, “Biomarkers for graft-versus-host disease” (Incyte Corporation, priority 2018, dated 2024).

B1: SELE (protein, UniProt P16581 22-610, looked up)
E-selectin: WSYNTSTEAMTYDEASAYCQQRYTHLVAIQNKEEIEYLNSILSYSPSYYWIGIRKVNNVWVWVGTQKPLTEEAKNWAPGEPNNRQKDEDCVEIYIKREKDVGMWNDERCSKKKLALCYTAACTNTSCSGHGECVETINNYTCKCDPGFSGLKCEQIVNCTALESPEHGSLVCSHPLGNFSYNSSCSISCDRGYLPSSMETMQCMSSGEWSAPIPACNVVECDAVTNPANGFVECFQNPGSFPWNTTCTFDCEEGFELMGAQSLQCTSSGNWDNEKPTCKAVTCRAVRQPQNGSVRCSHSPAGEFTFKSSCNFTCEEGFMLQGPAQVECTTQGQWTQQIPVCEAFQCTALSNPERGYMNCLPSASGSFRYGSSCEFSCEQGFVLKGSKRLQCGPTGEWDNEKPTCEAVRCDAVHQPPKGLVRCAHSPIGEFTYKSSCAFSCEEGFELHGSTQLECTSQGQWTEEVPSCQVVKCSSLAVPGKINMSCSGEPVFGTVCKFACPEGWTLNGSAARTCGATGHWSGLLPTCEAPTESNIPLVAGLSAAGLSLLTLAPFLLWLRKCLRKAKKFVPASSCQSLESDGSYQKPSYIL
B2: CD5 (protein, UniProt P06127 25-495, looked up)
T-cell surface glycoprotein …: RLSWYDPDFQARLTRSNSKCQGQLEVYLKDGWHMVCSQSWGRSSKQWEDPSQASKVCQRLNCGVPLSLGPFLVTYTPQSSIICYGQLGSFSNCSHSRNDMCHSLGLTCLEPQKTTPPTTRPPPTTTPEPTAPPRLQLVAQSGGQHCAGVVEFYSGSLGGTISYEAQDKTQDLENFLCNNLQCGSFLKHLPETEAGRAQDPGEPREHQPLPIQWKIQNSSCTSLEHCFRKIKPQKSGRVLALLCSGFQPKVQSRLVGGSSICEGTVEVRQGAQWAALCDSSSARSSLRWEEVCREQQCGSVNSYRVLDAGDPTSRGLFCPHQKLSQCHELWERNSYCKKVFVTCQDPNPAGLAAGTVASIILALVLLVVLLVVCGPLAYKKLVKKFRQKKQRQWIGPTGMNQNMSFHRNHTATVRSHAENPTASHVDNEYSQPPRNSHLSAYPALEGALHRSSMQPDNSSDSDYDLHGAQRL
B3: MESDC2 (protein, UniProt Q14696 34-234, looked up)
LRP chaperone MESD: AEGSPGTPDESTPPPRKKKKDIRDYNDADMARLLEQWEKDDDIEEGDLPEHKRPSAPVDFSKIDPSKPESILKMTKKGKTLMMFVTVSGSPTEKETEEITSLWQGSLFNANYDVQRFIVGSDRAIFMLRDGSYAWEIKDFLVGQDRCADVTLEGQVYPGKGGGSKEKNKTKQDKGKKKKEGDLKSRSSKEENRAGNKREDL
B4: SELL (protein, UniProt P14151 39-372, looked up)
L-selectin: WTYHYSEKPMNWQRARRFCRDNYTDLVAIQNKAEIEYLEKTLPFSRSYYWIGIRKIGGIWTWVGTNKSLTEEAENWGDGEPNNKKNKEDCVEIYIKRNKDAGKWNDDACHKLKAALCYTASCQPWSCSGHGECVEIINNYTCNCDVGYYGPQCQFVIQCEPLEAPELGTMDCTHPLGNFSFSSQCAFSCSEGTNLTGIEETTCGPFGNWSSPEPTCQVIQCEPLSAPDLGIMNCSHPLASFSFTSACTFICSEGTELIGKKKTICESSGIWSNPSPICQKLDKSFSMIKEGDYNPLFIPVAVMVTAFSGLAFIIWLARRLKKGKKSKRSMNDPY
B5: LILRB2 (protein, UniProt Q8N423 22-597, looked up)
Leukocyte immunoglobulin-like …: QTGTIPKPTLWAEPDSVITQGSPVTLSCQGSLEAQEYRLYREKKSASWITRIRPELVKNGQFHIPSITWEHTGRYGCQYYSRARWSELSDPLVLVMTGAYPKPTLSAQPSPVVTSGGRVTLQCESQVAFGGFILCKEGEDEHPQCLNSQPHARGSSRAIFSVGPVSPNRRWSHRCYGYDLNSPYVWSSPSDLLELLVPGVSKKPSLSVQPGPVMAPGESLTLQCVSDVGYDRFVLYKEGERDLRQLPGRQPQAGLSQANFTLGPVSRSYGGQYRCYGAHNLSSECSAPSDPLDILITGQIRGTPFISVQPGPTVASGENVTLLCQSWRQFHTFLLTKAGAADAPLRLRSIHEYPKYQAEFPMSPVTSAHAGTYRCYGSLNSDPYLLSHPSEPLELVVSGPSMGSSPPPTGPISTPGPEDQPLTPTGSDPQSGLGRHLGVVIGILVAVVLLLLLLLLLFLILRHRRQGKHWTSTQRKADFQHPAGAVGPEPTDRGLQWRSSPAADAQEENLYAAVKDTQPEDGVEMDTRAAASEAPQDVTYAQLHSLTLRRKATEPPPSQEREPPAEPSIYATLAIH
B6: BID (protein, UniProt P55957 1-195, looked up)
BH3-interacting domain death …: MDCEVNNGSSLRDECITNLLVFGFLQSCSDNSFRRELDALGHELPVLAPQWEGYDELQTDGNRSSHSRLGRIEADSESQEDIIRNIARHLAQVGDSMDRSIPPGLVNGLALQLRNTSRSEEDRNRDLATALEQLLQAYPRDMEKEKTMLVLALLLAKKVASHTPSLLRDVFHTTVNFINQNLRTYVRSLARNGMD
B7: RELT (protein, UniProt Q969Z4 26-430, looked up)
Tumor necrosis factor …: STTLWQCPPGEEPDLDPGQGTLCRPCPPGTFSAAWGSSPCQPHARCSLWRRLEAQVGMATRDTLCGDCWPGWFGPWGVPRVPCQPCSWAPLGTHGCDEWGRRARRGVEVAAGASSGGETRQPGNGTRAGGPEETAAQYAVIAIVPVFCLMGLLGILVCNLLKRKGYHCTAHKEVGPGPGGGGSGINPAYRTEDANEDTIGVLVRLITEKKENAAALEELLKEYHSKQLVQTSHRPVSKLPPAPPNVPHICPHRHHLHTVQGLASLSGPCCSRCSQKKWPEVLLSPEAVAATTPVPSLLPNPTRVPKAGAKAGRQGEITILSVGRFRVARIPEQRTSSMVSEVKTITEAGPSWGDLPDSPQPGLPPEQQALLGSGGSRTKWLKPPAENKAEENRYVVRLSESNLVI
B8: CRTAM (protein, UniProt O95727 18-393, looked up)
Cytotoxic and regulatory …: SLTNHTETITVEEGQTLTLKCVTSLRKNSSLQWLTPSGFTIFLNEYPALKNSKYQLLHHSANQLSITVPNVTLQDEGVYKCLHYSDSVSTKEVKVIVLATPFKPILEASVIRKQNGEEHVVLMCSTMRSKPPPQITWLLGNSMEVSGGTLHEFETDGKKCNTTSTLIIHTYGKNSTVDCIIRHRGLQGRKLVAPFRFEDLVTDEETASDALERNSLSSQDPQQPTSTVSVTEDSSTSEIDKEEKEQTTQDPDLTTEANPQYLGLARKKSGILLLTLVSFLIFILFIIVQLFIMKLRKAHVIWKKENEVSEHTLESYRSRSNNEETSSEEKNGQSSHPMRCMNYITKLYSEAKTKRKENVQHSKLEEKHIQVPESIV
B9: SLAMF1 (protein, UniProt Q13291 21-335, looked up)
Signaling lymphocytic …: ASYGTGGRMMNCPKILRQLGSKVLLPLTYERINKSMNKSIHIVVTMAKSLENSVENKIVSLDPSEAGPPRYLGDRYKFYLENLTLGIRESRKEDEGWYLMTLEKNVSVQRFCLQLRLYEQVSTPEIKVLNKTQENGTCTLILGCTVEKGDHVAYSWSEKAGTHPLNPANSSHLLSLTLGPQHADNIYICTVSNPISNNSQTFSPWPGCRTDPSETKPWAVYAGLLGGVIMILIMVVILQLRRRGKTNHYQTTVEKKSLTIYAQVQKPGPLQKKLDSFPAQDPCTTIYVAATEPVPESVQETNSITVYASVTLPES
B10: CPXM1 (protein, UniProt Q96SM3 21-734, looked up)
Probable carboxypeptidase X1: APRNSVLGLAQPGTTKVPGSTPALHSSPAQPPAETANGTSEQHVRIRVIKKKKVIMKKRKKLTLTRPTPLVTAGPLVTPTPAGTLDPAEKQETGCPPLGLESLRVSDSRLEASSSQSFGLGPHRGRLNIQSGLEDGDLYDGAWCAEEQDADPWFQVDAGHPTRFSGVITQGRNSVWRYDWVTSYKVQFSNDSRTWWGSRNHSSGMDAVFPANSDPETPVLNLLPEPQVARFIRLLPQTWLQGGAPCLRAEILACPVSDPNDLFLEAPASGSSDPLDFQHHNYKAMRKLMKQVQEQCPNITRIYSIGKSYQGLKLYVMEMSDKPGEHELGEPEVRYVAGMHGNEALGRELLLLLMQFLCHEFLRGNPRVTRLLSEMRIHLLPSMNPDGYEIAYHRGSELVGWAEGRWNNQSIDLNHNFADLNTPLWEAQDDGKVPHIVPNHHLPLPTYYTLPNATVAPETRAVIKWMKRIPFVLSANLHGGELVVSYPFDMTRTPWAARELTPTPDDAVFRWLSTVYAGSNLAMQDTSRRPCHSQDFSVHGNIINGADWHTVPGSMNDFSYLHTNCFEVTVELSCDKFPHENELPQEWENNKDALLTYLEQVRMGIAGVVRDKDTELGIADAVIAVDGINHDVTTAWGGDYWRLLTPGDYMVTASAEGYHSVTRNCRVTFEEGPFPCNFVLTKTPKQRLRELLAAGAKVPPDLRRRLERLRGQKD
B11: PSP-D (protein, UniProt P35247 21-375, looked up)
Pulmonary …: AEMKTYSHRTMPSACTLVMCSSVESGLPGRDGRDGREGPRGEKGDPGLPGAAGQAGMPGQAGPVGPKGDNGSVGEPGPKGDTGPSGPPGPPGVPGPAGREGPLGKQGNIGPQGKPGPKGEAGPKGEVGAPGMQGSAGARGLAGPKGERGVPGERGVPGNTGAAGSAGAMGPQGSPGARGPPGLKGDKGIPGDKGAKGESGLPDVASLRQQVEALQGQVQHLQAAFSQYKKVELFPNGQSVGEKIFKTAGFVKPFTEAQLLCTQAGGQLASPRSAAENAALQQLVVAKNEAAFLSMTDSKTEGKFTYPTGESLVYSNWAPGEPNDDGGSEDCVEIFTNGKWNDRACGEKRLVVCEF
B12: TANK (protein, UniProt Q92844 1-425, looked up)
TRAF family member-associated …: MDKNIGEQLNKAYEAFRQACMDRDSAVKELQQKTENYEQRIREQQEQLSLQQTIIDKLKSQLLLVNSTQDNNYGCVPLLEDSETRKNNLTLDQPQDKVISGIAREKLPKVRRQEVSSPRKETSARSLGSPLLHERGNIEKTFWDLKEEFHKICMLAKAQKDHLSKLNIPDTATETQCSVPIQCTDKTDKQEALFKPQAKDDINRGAPSITSVTPRGLCRDEEDTSFESLSKFNVKFPPMDNDSTFLHSTPERPGILSPATSEAVCQEKFNMEFRDNPGNFVKTEETLFEIQGIDPIASAIQNLKTTDKTKPSNLVNTCIRTTLDRAACLPPGDHNALYVNSFPLLDPSDAPFPSLDSPGKAIRGPQQPIWKPFPNQDSDSVVLSGTDSELHIPRVCEFCQAVFPPSITSRGDFLRHLNSHFNGET
B13: CLEC5A (protein, UniProt Q9NY25 1-188, looked up)
C-type lectin domain family 5 …: MNWHMIISGLIVVVLKVVGMTLFLLYFPQIFNKSNDGFTTTRSYGTVSQIFGSSSPSPNGFITTRSYGTVCPKDWEFYQARCFFLSTSESSWNESRDFCKGKGSTLAIVNTPEKLKFLQDITDAEKYFIGLIYHREEKRWRWINNSVFNGNVTNQNQNFNCATIGLTKTFDAASCDISYRRICEKNAK

The molecules below were run on plasma proteins (assay: Plasma proteins modulated between baseline and day 28 in responders (CR, VGPR, PR; n = 19), Example 6 (Table 13)). Conditions: plasma protein (OLINK NPX); responders (CR, VGPR, PR; n = 19); itacitinib 200 mg or 300 mg QD with corticosteroids; day 28 vs baseline.
Assay type: in vivo, human
In short: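 Plasma at baseline/screening and day 28 profiled for >1000 proteins by OLINK proximity extension assay, reported as NPX (log2). Steroid-naive and steroid-refractory patients pooled. Paired and unpaired t tests, ANOVA and Pearson correlation applied; significance at P<0.05.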

Molecule	Fold Change, Decreased Expression from Baseline to Day 28
B1	−1.5291
B2	−1.9942
B3	−1.7056
B4	−1.4428
B5	−1.2555
B6	−1.382
B7	−1.3317
B8	−1.5805
B9	−1.2218
B10	−1.4779
B11	−1.2426
B12	−1.3124
B13	−1.3618
